In paper PMC8814668, “Mechanism of Atg9 recruitment by Atg11 in the cytoplasm-to-vacuole targeting pathway” (The Journal of Biological Chemistry, 2022):
“And” between values parts separate entries of the source, which are not always exact repeats. Identical values can stand only once.

T1: EGFP-Atg11 (full-length yeast Atg11) (yeast (S. cerevisiae), UniProt Q12527 1-1178)
T1 construct: Atg11, S. cerevisiae, full length, 135 kDa; also called EGFP tagged Atg11; not shown: EGFP, N-terminal, kept
T1 sequence (looked up): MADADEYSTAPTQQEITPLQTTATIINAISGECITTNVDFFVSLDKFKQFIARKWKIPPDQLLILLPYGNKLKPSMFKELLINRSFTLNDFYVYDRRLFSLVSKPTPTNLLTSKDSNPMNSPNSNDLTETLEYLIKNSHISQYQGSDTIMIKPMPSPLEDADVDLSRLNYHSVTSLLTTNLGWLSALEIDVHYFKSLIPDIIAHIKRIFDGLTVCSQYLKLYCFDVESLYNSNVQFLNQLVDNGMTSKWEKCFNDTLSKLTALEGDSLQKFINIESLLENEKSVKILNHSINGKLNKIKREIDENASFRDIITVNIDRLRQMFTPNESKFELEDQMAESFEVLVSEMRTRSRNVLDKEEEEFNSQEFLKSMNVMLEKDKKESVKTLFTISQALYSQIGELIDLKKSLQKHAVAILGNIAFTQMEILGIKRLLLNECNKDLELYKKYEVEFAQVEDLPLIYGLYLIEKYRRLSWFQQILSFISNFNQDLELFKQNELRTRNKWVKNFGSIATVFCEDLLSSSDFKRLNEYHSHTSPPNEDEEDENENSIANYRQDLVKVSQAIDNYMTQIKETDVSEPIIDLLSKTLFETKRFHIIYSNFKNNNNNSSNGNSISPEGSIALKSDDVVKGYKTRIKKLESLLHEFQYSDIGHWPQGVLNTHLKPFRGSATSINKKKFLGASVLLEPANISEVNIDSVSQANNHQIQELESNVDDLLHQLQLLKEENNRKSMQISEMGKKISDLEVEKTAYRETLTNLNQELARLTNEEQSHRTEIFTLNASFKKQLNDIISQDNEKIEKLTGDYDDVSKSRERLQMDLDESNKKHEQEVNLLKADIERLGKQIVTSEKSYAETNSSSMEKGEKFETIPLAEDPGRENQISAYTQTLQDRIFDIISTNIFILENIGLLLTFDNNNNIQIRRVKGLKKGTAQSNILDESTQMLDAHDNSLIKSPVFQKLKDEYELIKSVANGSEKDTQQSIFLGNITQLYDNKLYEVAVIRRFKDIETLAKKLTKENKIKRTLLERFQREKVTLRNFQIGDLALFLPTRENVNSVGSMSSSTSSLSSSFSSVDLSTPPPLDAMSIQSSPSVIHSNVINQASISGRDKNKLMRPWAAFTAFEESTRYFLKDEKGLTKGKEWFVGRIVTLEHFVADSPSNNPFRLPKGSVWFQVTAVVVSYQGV


What was measured:
[1] = biological target: T1, EGFP-Atg11 (full-length yeast Atg11); experiment: NMR titration; 1H-15N HSQC of 0.2 mM labelled Atg9-NTD, unlabelled EGFP-Atg11 added stepwise (0.02, 0.04, 0.08 mM); 20 mM Bis-Tris pH 6, 300 mM NaCl; 298 K, 600 MHz; read-out: loss of peak intensity; conditions: both partners purified
[2] = biological target: T1, EGFP-Atg11 (full-length yeast Atg11); experiment: ITC; Atg9-NTD (300 to 500 μM, syringe) into EGFP-Atg11 (50 to 100 μM, cell); 25 °C; 20 mM Tris pH 7.4, 300 mM NaCl; single binding site; two replicates; conditions: both partners purified

binding result [1]	Kd [2] [nM]	dH [2] [kcal/mol]	stoichiometry N [2]	Binder
binds	–	–	–	Atg9-NTD(1–285) (domain or fragment, S. cerevisiae, UniProt Q12142 1-285, looked up, Atg9, S. cerevisiae, N-terminal disordered domain, residues 1-285; The EGFP tag was cleaved with 3C protease for the sample of the resonance assignment; also called Atg9 NTD (residues 1–285); fragment 1 to 285) MERDEYQLPNSHGKNTFLSRIFGLQSDEVNPSLNSQEMSNFPLPDIERGSSLLHSTNDSREDVDENDLRVPESDQGTSTEEEDEVDEEQVQAYAPQISDGLDGDHQLNSVTSKENVLETEKSNLERLVEGSTDDSVPKVGQLSSEEEEDNEFINNDGFDDDTPLFQKSKIHEFSSKKSNTIEDGKRPLFFRHILQNNRPQRDTQKLFTSSNAIHHDKDKSANNGPRNINGNQKHGTKYFGSATQPRFTGSPLNNTNRFTKLFPLRKPNLLSNISVLNNTPEDRIN
–	1090	-5.87 ± 1.34	0.931 and 0.94	Atg9-NTD-(1–255)-mCherry, wild type (domain or fragment, S. cerevisiae, UniProt Q12142 1-255, looked up, mCherry is named for the bead assay; also called mCherry-tagged Atg9-NTD; not shown: mCherry, C-terminal, kept) MERDEYQLPNSHGKNTFLSRIFGLQSDEVNPSLNSQEMSNFPLPDIERGSSLLHSTNDSREDVDENDLRVPESDQGTSTEEEDEVDEEQVQAYAPQISDGLDGDHQLNSVTSKENVLETEKSNLERLVEGSTDDSVPKVGQLSSEEEEDNEFINNDGFDDDTPLFQKSKIHEFSSKKSNTIEDGKRPLFFRHILQNNRPQRDTQKLFTSSNAIHHDKDKSANNGPRNINGNQKHGTKYFGSATQPRFTGSPLNNT
binds	–	–	–	Atg9-NTD (29–255)-mCherry (domain or fragment, S. cerevisiae, UniProt Q12142 29-255, looked up, also called shorter construct of Atg9-NTD; not shown: mCherry, C-terminal, kept) VNPSLNSQEMSNFPLPDIERGSSLLHSTNDSREDVDENDLRVPESDQGTSTEEEDEVDEEQVQAYAPQISDGLDGDHQLNSVTSKENVLETEKSNLERLVEGSTDDSVPKVGQLSSEEEEDNEFINNDGFDDDTPLFQKSKIHEFSSKKSNTIEDGKRPLFFRHILQNNRPQRDTQKLFTSSNAIHHDKDKSANNGPRNINGNQKHGTKYFGSATQPRFTGSPLNNT
